Consider five molecules from patent publication US20120014950A1, “Antibodies That Specifically Bind to DR3” (Xencor, Inc., priority 2010, published 2012).

For test [1], the target named is T1, human DR3 (Homo sapiens, UniProt Q93038).
T1 sequence (Q93038 25-417): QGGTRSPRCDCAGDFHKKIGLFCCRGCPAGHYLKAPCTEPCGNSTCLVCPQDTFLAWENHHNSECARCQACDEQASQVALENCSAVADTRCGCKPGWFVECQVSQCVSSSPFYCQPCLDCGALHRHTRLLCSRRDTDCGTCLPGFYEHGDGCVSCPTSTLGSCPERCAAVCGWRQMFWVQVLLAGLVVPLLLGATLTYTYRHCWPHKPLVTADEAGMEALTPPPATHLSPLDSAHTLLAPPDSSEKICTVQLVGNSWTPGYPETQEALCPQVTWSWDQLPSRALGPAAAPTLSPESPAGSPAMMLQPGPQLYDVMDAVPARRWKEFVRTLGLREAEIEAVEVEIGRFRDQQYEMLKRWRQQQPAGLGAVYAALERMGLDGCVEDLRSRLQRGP
The experiment in a line: TL1A binding inhibition assay (flow cytometry). Conditions: HEK293F cells transiently expressing human DR3, 1 μg/mL human TL1A. Also noted: expressed in transfected cells; host or cells: HEK293F (transient). The procedure:
The anti-DR3 monoclonal antibody 11H08 was assayed for its ability to inhibit human TL1A binding to human DR3 using techniques known to those skilled in the art. Briefly, HEK293F cells transiently expressing human DR3 were incubated with 1 μg/mL of human TL1A in the presence of either an unrelated antibody (mIgG1) as an isotype control that was known not to bind TL1A or DR3, or an anti-DR3 monoclonal antibody (11H08), for 20 minutes at room temperature. Binding was detected using an anti-TL1A-biotin polyclonal antibody followed by Streptavidin PE. The ability of the anti-DR3 monoclonal antibody to inhibit binding of TL1A to DR3 was measured by flow cytometry.
On the technique in general: In flow cytometry, cells or beads pass a laser one at a time.

For test [2], the target named is T1, human DR3. The test is described as follows: TF-1 assay (cell viability, cycloheximide, Cell Titer Glo). It counts as cell-based. Also noted: endogenous in cells; host or cells: TF-1 (premyeloid). Conditions: TF-1 cells with cycloheximide; luminescence. Background: In ATP-based viability assays light output follows the ATP content of the culture.
A further test concerns primary human T cells. The experiment in a line: Primary human T cell assay (proliferation, cytokine secretion). It counts as cell-based. As for the experimental part:
A primary human T cell assay can be performed using standard methods known in the art. Briefly, primary human T cells are incubated with 100 ng/mL human TL1A ligand and appropriate concentrations of the antibody molecules to be tested for 72 hours. This incubation is followed by a 24 hour incubation with 5 ng/mL IL-2. Proliferation is measured by a standard luminescent protocol. The amount of cytokine secreted is determined by standard methods in the art.
A primary human T cell assay was performed to determine the effect of the 11H08-Fab-HSA on proliferation and the secretion of IFNγ or GM-CSF from cells treated with TL1A. […] 3 μg/mL 11H08-Fab-HSA, 3 μg/mL hDR3-Fc, or 3 μg/mL full length 11H08 immunoglobulin were used in this experiment. Results were compared to a set of cells treated only with media and cells that were treated only with 100 ng/mL TL1A, as indicated.

The target of test [3] is T1, human DR3. The test is described as follows: TF-1 assay (cell viability, cycloheximide, Cell Titer Glo). Also noted: endogenous in cells; host or cells: TF-1 (premyeloid). The format is cell-based. Conditions: TF-1 cells, 10 ng/mL hTL1A and cycloheximide; luminescence. As for the experimental part: Treatment of TF-1 cells with human TL1A (the ligand for DR3) in the presence of cycloheximide induces cell death (Migone et al., Immunity 16:479-492 (2002)). A TF-1 assay was used to test the ability of 11H08 to block TL1A activity through the DR3 receptor.
A TF-1 assay can be performed according to methods known in the art. Briefly, premyeloid TF-1 cells are maintained in 10% FBS (fetal bovine serum), 1×RPMI, 1% Pen-Strep with Glutamine, and 2 ng/mL GM-CSF. The cells are grown until log phase, washed three times in PBS, and incubated with the antibodies to be tested for one hour. After this pre-incubation, between 50,000 and 100,000 cells are seeded per well. The cells are combined with 10 ng/mL hTL1A, 10 μg/mL cycloheximide (Sigma-Aldrich, cat #C1988-1G) and the antibodies to be tested and then incubated for 24 to 72 hours. Cell viability is measured using Cell Titer Glo (Promega, cat #G7570). This assay allows cell viability to be determined by measuring the luminescent signal which is proportional to the amount of ATP present. The ATP is indicative of metabolically active cells and higher luminescence signals reflect greater cell viability.
In order to test the effect of 11H08-scFv-HSA and the humanized anti-DR3-Fab molecules, a TF-1 assay was used to test the ability of these various anti-DR3 fragments to block TL1A induced activity. The TF-1 assay was performed as indicated above in Example 5, but where the various anti-DR3 fragments were used instead of the whole 11H08 immunoglobulin as described.

[4] abbreviates: 100 ng/mL hTL1A, 3 μg/mL test molecule.

Entries after “also recorded” stand apart in the source; their conditions may differ.

B1: 11H08: mouse anti-human DR3 monoclonal antibody, isotype IgG1κ, from hybridoma 11H08; VH SEQ ID NO:7, VL SEQ ID NO:20 (antibody, listed as Mus musculus, V domains shown)
VH: EVMLVESGGGLVKPGGSLKLSCAASGFTFTNYAMSWVRQTPEKRLEWVATITSGGSYIYYLDSVKGRFTISRDNAKSTLYLQMSSLRSEDTAIYNCARRKDGNYYYAMDYWGQGTSVTVSS
VL: DIVLTQSPASLAVSLGQRATISCRASESVDSYGNSFIHWYQQKAGQPPKLLIYRASNLESGIPARFSGSGSRTDFTLTINPVEADDVATYYCQQSYEDPWTFGGGTKLEIK
Regarding B1, in the test with human DR3 [1], the “inhibition of human TL1A binding to human DR3” value was “inhibited human TL1A binding to the human DR3 receptor”. The “TF-1 cell viability / apoptosis induction (agonist, TL1A-like activity)” value with human DR3 [2] is “activated the DR3 receptor, thereby inducing TL1A-like activity”. The “proliferation and cytokine secretion (agonist activity)” value in the test with primary human T cells (3 μg/mL antibody alone) was “induced TL1A-like activity”.

B2: H1L2-Fab: humanized anti-DR3 Fab, VH H1 (SEQ ID NO:9), VL L2 (SEQ ID NO:22, Leu at Kabat 104) (antibody, V domains shown)
VH: EVQLVESGGGLVKPGGSLRLSCAASGFTFTNYAMSWVRQAPGQRLEWVSTITSGGSYIYYLDSVKGRFTISRDNAKSTLYLQMNSLRAEDTAVYNCARRKDGNYYYAMDYWGQGTTVTVSS
VL: DIVLTQSPSSLSASVGDRVTITCRASESVDSYGNSFIHWYQQKPGQPPKLLIYRASNLESGIPARFSGSGSRTDFTLTISSLQPEDFATYYCQQSYEDPWTFGGGTKXEIK
modifications: Fab constant domains; humanized murine antibody
On to B2, for which the “inhibition of TL1A-induced apoptosis (TF-1 cell viability)” value (from here on “inhibition of TL1A-induced apoptosis”) with human DR3 [3] is given as “inhibited TL1A-induced apoptosis in TF-1 cells”.

B3: 11H08-Fab: Fab of 11H08 VH/VL (SEQ ID NOs:7, 20) with human IgG1 CH1 and Cκ; parental anti-DR3 molecule (antibody, listed as Mus musculus, V domains shown)
VH: EVMLVESGGGLVKPGGSLKLSCAASGFTFTNYAMSWVRQTPEKRLEWVATITSGGSYIYYLDSVKGRFTISRDNAKSTLYLQMSSLRSEDTAIYNCARRKDGNYYYAMDYWGQGTSVTVSS
VL: DIVLTQSPASLAVSLGQRATISCRASESVDSYGNSFIHWYQQKAGQPPKLLIYRASNLESGIPARFSGSGSRTDFTLTINPVEADDVATYYCQQSYEDPWTFGGGTKLEIK
modifications: human IgG1 CH1 and Ckappa constant domains
notes: parental anti-DR3 molecule
As for B3, the “inhibition of TL1A-induced apoptosis” value with human DR3 [3] was “prevented TL1A-induced apoptosis; also recorded: inhibited TL1A-induced apoptosis in TF-1 cells”.

B4: hDR3-Fc: human DR3-Fc fusion protein, known to bind TL1A and inhibit activity (protein)
chain: QGGTRSPRCDCAGDFHKKIGLFCCRGCPAGHYLKAPCTEPCGNSTCLVCPQDTFLAWENHHNSECARCQACDEQASQVALENCSAVADTRCGCKPGWFVECQVSQCVSSSPFYCQPCLDCGALHRHTRLLCSRRDTDCGTCLPGFYEHGDGCVSCPTSTLGSCPERCAAVCGWRQ
modifications: left off: a dimerising Fc or GST
Regarding B4, in the test with primary human T cells (setting [4]), the TL1A-induced cell proliferation result is “inhibited” and the “TL1A-induced cytokine secretion (IFNγ, GM-CSF)” value was “inhibited”.

B5: H5L2-Fab: humanized anti-DR3 Fab, VH H5 (SEQ ID NO:17), VL L2 (SEQ ID NO:22, Leu at Kabat 104) (antibody, V domains shown)
VH: EVQLLQSGAEVKKPGASVKVSCKASGFTFTNYAMSWVRQAPGQRLEWVATITSGGSYIYYLDSVKGRFTISRDNAKSTLHLQMNSLRAEDTAVYNCARRKDGNYYYAMDYWGQGTTVTVSS
VL: DIVLTQSPSSLSASVGDRVTITCRASESVDSYGNSFIHWYQQKPGQPPKLLIYRASNLESGIPARFSGSGSRTDFTLTISSLQPEDFATYYCQQSYEDPWTFGGGTKXEIK
modifications: Fab constant domains; humanized murine antibody
Regarding B5, the “inhibition of TL1A-induced apoptosis” value with human DR3 [3] is “inhibited TL1A-induced apoptosis in TF-1 cells”.
